Experimental data published in paper PMC2290040 (The Journal of Cell Biology, 1992).

Experiments:
Test in all cases: co-IP
[1] = molecular target: T1, RHL-1 truncated at the carboxy terminus, product of 260 aa (rat, UniProt P02706 1-260, [35S]methionine label)
T1 sequence (looked up): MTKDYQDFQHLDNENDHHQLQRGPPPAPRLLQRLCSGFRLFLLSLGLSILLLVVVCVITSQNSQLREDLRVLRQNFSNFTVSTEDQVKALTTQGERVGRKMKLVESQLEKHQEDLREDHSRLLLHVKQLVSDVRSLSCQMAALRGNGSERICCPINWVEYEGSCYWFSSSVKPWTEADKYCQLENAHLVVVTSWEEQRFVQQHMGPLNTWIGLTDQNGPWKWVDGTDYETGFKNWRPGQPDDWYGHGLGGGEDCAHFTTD

[2] = molecular target: T2, RHL-1 truncated at the carboxy terminus, product of 267 aa (rat, UniProt P02706 1-267, [35S]methionine label)
T2 sequence (looked up): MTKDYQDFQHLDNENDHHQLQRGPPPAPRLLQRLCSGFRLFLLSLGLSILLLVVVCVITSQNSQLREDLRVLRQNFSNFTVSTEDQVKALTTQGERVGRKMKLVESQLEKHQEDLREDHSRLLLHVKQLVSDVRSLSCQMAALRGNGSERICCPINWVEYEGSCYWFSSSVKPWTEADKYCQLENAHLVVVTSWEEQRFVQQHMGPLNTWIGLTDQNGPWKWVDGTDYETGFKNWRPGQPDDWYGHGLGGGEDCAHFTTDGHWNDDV

[3] = molecular target: T3, RHL-1 truncated at the carboxy terminus, product of 204 aa (rat, UniProt P02706 1-204, [35S]methionine label)
T3 sequence (looked up): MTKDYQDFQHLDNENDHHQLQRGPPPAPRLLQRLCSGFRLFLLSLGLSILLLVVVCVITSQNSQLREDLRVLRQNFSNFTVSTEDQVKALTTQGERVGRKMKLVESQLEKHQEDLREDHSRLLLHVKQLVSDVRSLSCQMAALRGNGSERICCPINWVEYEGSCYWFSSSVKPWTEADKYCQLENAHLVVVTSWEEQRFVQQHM

- percent of RHL-2/3 coimmunoprecipitated, relative to full-length RHL-1 [1]: 100%
- percent of RHL-2/3 coimmunoprecipitated, relative to full-length RHL-1 [2]: 100%
- percent of RHL-2/3 coimmunoprecipitated, relative to full-length RHL-1 [3]: 88%
B1: rat hepatic lectin subunit RHL-2/3 (subunit of the rat asialoglycoprotein receptor), full length (natural protein, UniProt P08290 1-301, looked up)
chain: MEKDFQDIQQLDSEENDHQLIGDEEQGSHVQNLRTENPRWGGQPPSRPFPQRLCSKFRLSLLALAFNILLLVVICVVSSQSMQLQKEFWTLKETLSNFSTTTLMEFKALDSHGGSRNDNLTSWETILEKKQKDIKADHSTLLFHLKHFPLDLRTLTCQLAFFLSNGTECCPVNWVEFGGSCYWFSRDGLTWAEADQYCQMENAHLLVINSREEQEFVVKHRGAFHIWIGLTDKDGSWKWVDGTEYRSNFKNWAFTQPDNWQGHEEGGSEDCAEILSDGLWNDNFCQQVNRWACERKRDITY
modifications: [35S]methionine label; glycosylated by the microsomes
